Consider ten molecules from US9266940 (Novo Nordisk, dated 2016).

Numbered stars: 1 amine (or outer) side, 2 acyl side, 3 side chain; on linkers, the order of the positions; unused ones are H or OH. Side chains are listed from the residue outwards. Ends that are not written are not given here. * marks the point of attachment. Decanoyl(10-(4-HOOC-PhO)) = O=C(O)c1ccc(OCCCCCCCCCC(=O)*)cc1; d(γGlu) = O=C(O)[C@@H](CCC(=O)[*:2])N[*:1]; γGlu = O=C(O)[C@H](CCC(=O)[*:2])N[*:1]; C14 diacid = O=C(O)CCCCCCCCCCCCC(=O)*; AEEA = NCCOCCOCC(=O)O

In the first test the target is T1, human GLP-1 receptor (human, UniProt P43220 24-463).
T1 construct: whole, on cells; Used as purified plasma membranes of the stably transfected BHK cell line, not as intact cells; also called hGLP-1
Briefly: SPA, displacement of 125I-GLP-1(7-36)NH2 from hGLP-1R BHK membranes, low HSA (0.001%). On the procedure: (§1) A shift in the binding affinity, $IC50$, is an indication that the peptide in question binds to albumin, and thereby a prediction of a potential protracted pharmacokinetic profile of the peptide in question in animal models.
(§2) 50 ul (micro liter) HSA ("high albumin" experiment containing 2% HSA), or buffer ("low albumin" experiment containing 0.001% HSA), was added to Optiplate, and 25 ul of test compounds were added. 5-10 ug membrane protein/sample was added (50 ul) corresponding to 0.1-0.2 mg protein/ml (to be preferably optimised for each membrane preparation). SPA-particles (Wheatgerm agglutinin SPA beads, Perkin Elmer, #RPNQ0001) were added in an amount of 0.5 mg/well (50 ul). […] The plates were sealed with PlateSealer and incubated for 120 minutes at 30° C. while shaking. The plates were centrifuged (1500 rpm, 10 min) and counted in Topcounter.
Consider HAEGTFTSDVSSYLEEQAVRK([AEEA-AEEA-γGlu-Decanoyl(10-(4-HOOC-PhO))])FIAWLVRGRK([AEEA-AEEA-γGlu-Decanoyl(10-(4-HOOC-PhO))]), for which the IC50 turned out to be 0.15 nM.

HAEGTFTSDVSSYLEK([γGlu-AEEA-AEEA-C14 diacid])QAVRK([γGlu-AEEA-AEEA-C14 diacid])FIEWLVQGRG (also called 20) came in with an IC50 of 0.19 nM.

Take HAEGTFTSDVSSYLEEQK([AEEA-AEEA-γGlu-Decanoyl(10-(4-HOOC-PhO))])VRK([AEEA-AEEA-γGlu-Decanoyl(10-(4-HOOC-PhO))])FIAWLVRGRG (also called 28): the IC50 amounted to 0.2 nM.

With HAEGTFTSDVSSYLEEQK([AEEA-AEEA-γGlu-C14 diacid])VRK([AEEA-AEEA-γGlu-C14 diacid])FIAHLVRGRG (also called 24), the IC50 amounted to 2.74 nM. This IC50 is about 14-fold higher than that of the molecule before.

Turning to HAEGTFTSDVSSYLEK([AEEA-AEEA-γGlu-C14 diacid])QAVRK([AEEA-AEEA-γGlu-C14 diacid])FIEWLVQGRG (also called 11), the IC50 worked out at 0.23 nM.

As for HAEGTFTSDVSSYLEGQAVRK([γGlu-AEEA-AEEA-d(γGlu)-Decanoyl(10-(4-HOOC-PhO))])FIAWLVQGK([γGlu-AEEA-AEEA-d(γGlu)-Decanoyl(10-(4-HOOC-PhO))])G (also called 26), the IC50 worked out at 0.38 nM.

With HAEGTFTSDVSSYLEGQAVRK([AEEA-AEEA-γGlu-γGlu-Decanoyl(10-(4-HOOC-PhO))])FIAWLVQGK([AEEA-AEEA-γGlu-γGlu-Decanoyl(10-(4-HOOC-PhO))])G (also called 23), the IC50 worked out at 0.85 nM.

As to HAEGTFTSDVSSYLEEQAARK([AEEA-AEEA-γGlu-Decanoyl(10-(4-HOOC-PhO))])FIAWLVRGRK([AEEA-AEEA-γGlu-Decanoyl(10-(4-HOOC-PhO))]), the IC50 amounted to 0.19 nM.

Regarding HAEGTFTSDVSSYLEEEAVRK([AEEA-AEEA-γGlu-C14 diacid])FIAHLVQGRK([AEEA-AEEA-γGlu-C14 diacid]) (also called 17), the IC50 turned out to be 0.45 nM.

In the case of HAEGTFTSDVSSYLEGQAVRK([AEEA-AEEA-γGlu-C14 diacid])FIAHLVQGRK([AEEA-AEEA-γGlu-C14 diacid]) (also called 16), the IC50 stood at 0.2 nM.

The target in the next test is T1, human GLP-1 receptor. Briefly: SPA displacement assay; IC50 at 2.0% HSA over IC50 at 0.001% HSA. On the procedure:
as §1, §2
With HAEGTFTSDVSSYLEEQAVRK([AEEA-AEEA-γGlu-Decanoyl(10-(4-HOOC-PhO))])FIAWLVRGRK([AEEA-AEEA-γGlu-Decanoyl(10-(4-HOOC-PhO))]), the “Ratio [(IC50/nM) high HSA]/[(IC50/nM) low HSA]” value (“Ratio” for short) is 217.

On to HAEGTFTSDVSSYLEK([γGlu-AEEA-AEEA-C14 diacid])QAVRK([γGlu-AEEA-AEEA-C14 diacid])FIEWLVQGRG (also called 20), for which the “Ratio” value was 1750.

Turning to HAEGTFTSDVSSYLEEQK([AEEA-AEEA-γGlu-Decanoyl(10-(4-HOOC-PhO))])VRK([AEEA-AEEA-γGlu-Decanoyl(10-(4-HOOC-PhO))])FIAWLVRGRG (also called 28), the “Ratio” value was found to be 144.

Take HAEGTFTSDVSSYLEEQK([AEEA-AEEA-γGlu-C14 diacid])VRK([AEEA-AEEA-γGlu-C14 diacid])FIAHLVRGRG (also called 24): the “Ratio” value was 18.

Regarding HAEGTFTSDVSSYLEK([AEEA-AEEA-γGlu-C14 diacid])QAVRK([AEEA-AEEA-γGlu-C14 diacid])FIEWLVQGRG (also called 11), the “Ratio” value amounted to 926.

Consider HAEGTFTSDVSSYLEGQAVRK([γGlu-AEEA-AEEA-d(γGlu)-Decanoyl(10-(4-HOOC-PhO))])FIAWLVQGK([γGlu-AEEA-AEEA-d(γGlu)-Decanoyl(10-(4-HOOC-PhO))])G (also called 26), for which the “Ratio” value is 143.

In the case of HAEGTFTSDVSSYLEGQAVRK([AEEA-AEEA-γGlu-γGlu-Decanoyl(10-(4-HOOC-PhO))])FIAWLVQGK([AEEA-AEEA-γGlu-γGlu-Decanoyl(10-(4-HOOC-PhO))])G (also called 23), the “Ratio” value was 47.

HAEGTFTSDVSSYLEEQAARK([AEEA-AEEA-γGlu-Decanoyl(10-(4-HOOC-PhO))])FIAWLVRGRK([AEEA-AEEA-γGlu-Decanoyl(10-(4-HOOC-PhO))]): the “Ratio” value stood at 219.

As for HAEGTFTSDVSSYLEEEAVRK([AEEA-AEEA-γGlu-C14 diacid])FIAHLVQGRK([AEEA-AEEA-γGlu-C14 diacid]) (also called 17), the “Ratio” value was found to be 387.

HAEGTFTSDVSSYLEGQAVRK([AEEA-AEEA-γGlu-C14 diacid])FIAHLVQGRK([AEEA-AEEA-γGlu-C14 diacid]) (also called 16): the “Ratio” value was determined as 127.

Another test has as its target T1, human GLP-1 receptor. Briefly: cell-based or functional assay.
For the molecule HAEGTFTSDVSSYLEEQAVRK([AEEA-AEEA-γGlu-Decanoyl(10-(4-HOOC-PhO))])FIAWLVRGRK([AEEA-AEEA-γGlu-Decanoyl(10-(4-HOOC-PhO))]), the “EC50/pM (in vitro potency, cAMP formation, AlphaScreen)” value (from here on “EC50/pM”) turned out to be 143 pM.

In the case of HAEGTFTSDVSSYLEK([γGlu-AEEA-AEEA-C14 diacid])QAVRK([γGlu-AEEA-AEEA-C14 diacid])FIEWLVQGRG (also called 20), the “EC50/pM” value came out at 67 pM.

With HAEGTFTSDVSSYLEEQK([AEEA-AEEA-γGlu-Decanoyl(10-(4-HOOC-PhO))])VRK([AEEA-AEEA-γGlu-Decanoyl(10-(4-HOOC-PhO))])FIAWLVRGRG (also called 28), the “EC50/pM” value turned out to be 68 pM.

As to HAEGTFTSDVSSYLEEQK([AEEA-AEEA-γGlu-C14 diacid])VRK([AEEA-AEEA-γGlu-C14 diacid])FIAHLVRGRG (also called 24), the “EC50/pM” value came to 70 pM.

Take HAEGTFTSDVSSYLEK([AEEA-AEEA-γGlu-C14 diacid])QAVRK([AEEA-AEEA-γGlu-C14 diacid])FIEWLVQGRG (also called 11): the “EC50/pM” value worked out at 81 pM.

Regarding HAEGTFTSDVSSYLEGQAVRK([γGlu-AEEA-AEEA-d(γGlu)-Decanoyl(10-(4-HOOC-PhO))])FIAWLVQGK([γGlu-AEEA-AEEA-d(γGlu)-Decanoyl(10-(4-HOOC-PhO))])G (also called 26), the “EC50/pM” value stood at 200 pM.

Turning to HAEGTFTSDVSSYLEGQAVRK([AEEA-AEEA-γGlu-γGlu-Decanoyl(10-(4-HOOC-PhO))])FIAWLVQGK([AEEA-AEEA-γGlu-γGlu-Decanoyl(10-(4-HOOC-PhO))])G (also called 23), the “EC50/pM” value amounted to 140 pM.

Regarding HAEGTFTSDVSSYLEEQAARK([AEEA-AEEA-γGlu-Decanoyl(10-(4-HOOC-PhO))])FIAWLVRGRK([AEEA-AEEA-γGlu-Decanoyl(10-(4-HOOC-PhO))]), the “EC50/pM” value is 26 pM.

As for HAEGTFTSDVSSYLEEEAVRK([AEEA-AEEA-γGlu-C14 diacid])FIAHLVQGRK([AEEA-AEEA-γGlu-C14 diacid]) (also called 17), the “EC50/pM” value came to 17 pM.

HAEGTFTSDVSSYLEGQAVRK([AEEA-AEEA-γGlu-C14 diacid])FIAHLVQGRK([AEEA-AEEA-γGlu-C14 diacid]) (also called 16): the “EC50/pM” value is 21 pM.

Another test concerns the target T1, human GLP-1 receptor. Briefly: SPA, displacement of 125I-GLP-1(7-36)NH2 from hGLP-1R BHK membranes, high HSA (2.0%). On the procedure:
as §1, §2
For HAEGTFTSDVSSYLEEQAVRK([AEEA-AEEA-γGlu-Decanoyl(10-(4-HOOC-PhO))])FIAWLVRGRK([AEEA-AEEA-γGlu-Decanoyl(10-(4-HOOC-PhO))]), the IC50 stood at 33 nM.

In turn, HAEGTFTSDVSSYLEK([γGlu-AEEA-AEEA-C14 diacid])QAVRK([γGlu-AEEA-AEEA-C14 diacid])FIEWLVQGRG (also called 20) yielded a 50% inhibitory concentration (IC50) of 333 nM. Against the preceding molecule, the IC50 is about 10-fold higher.

In turn, HAEGTFTSDVSSYLEEQK([AEEA-AEEA-γGlu-Decanoyl(10-(4-HOOC-PhO))])VRK([AEEA-AEEA-γGlu-Decanoyl(10-(4-HOOC-PhO))])FIAWLVRGRG (also called 28) registered an IC50 of 29 nM.

In turn, HAEGTFTSDVSSYLEEQK([AEEA-AEEA-γGlu-C14 diacid])VRK([AEEA-AEEA-γGlu-C14 diacid])FIAHLVRGRG (also called 24) had an IC50 of 50 nM. Compared with the last molecule, the IC50 is about 1.7-fold higher.

HAEGTFTSDVSSYLEK([AEEA-AEEA-γGlu-C14 diacid])QAVRK([AEEA-AEEA-γGlu-C14 diacid])FIEWLVQGRG (also called 11) came in with an IC50 of 213 nM. This IC50 is about 4.3-fold higher than that of the molecule before.

HAEGTFTSDVSSYLEGQAVRK([γGlu-AEEA-AEEA-d(γGlu)-Decanoyl(10-(4-HOOC-PhO))])FIAWLVQGK([γGlu-AEEA-AEEA-d(γGlu)-Decanoyl(10-(4-HOOC-PhO))])G (also called 26) returned an IC50 of 54 nM.

In turn, HAEGTFTSDVSSYLEGQAVRK([AEEA-AEEA-γGlu-γGlu-Decanoyl(10-(4-HOOC-PhO))])FIAWLVQGK([AEEA-AEEA-γGlu-γGlu-Decanoyl(10-(4-HOOC-PhO))])G (also called 23) registered an IC50 of 40 nM.

As for HAEGTFTSDVSSYLEEQAARK([AEEA-AEEA-γGlu-Decanoyl(10-(4-HOOC-PhO))])FIAWLVRGRK([AEEA-AEEA-γGlu-Decanoyl(10-(4-HOOC-PhO))]), the IC50 came out at 42 nM.

For the molecule HAEGTFTSDVSSYLEEEAVRK([AEEA-AEEA-γGlu-C14 diacid])FIAHLVQGRK([AEEA-AEEA-γGlu-C14 diacid]) (also called 17), the IC50 came out at 174 nM.

Turning to HAEGTFTSDVSSYLEGQAVRK([AEEA-AEEA-γGlu-C14 diacid])FIAHLVQGRK([AEEA-AEEA-γGlu-C14 diacid]) (also called 16), the half-maximal inhibitory concentration (IC50) was 25 nM.
